Columns and labels:
SW480 cells = test: Transient transfection luciferase reporter assay in SW480; format: cell-based, human
Method: (§1) HepG2, SW480 and HeLa were seeded the day before transfection at densities of 2.5×10^5, 1.5×10^5 and 6.0×10^4 cells per 6-well respectively. The next day, a mixture of CL22 peptide ([…] (SEQ ID NO:15) (described in International Patent Application WO 98/35984)) and plasmid DNA (2:1 ratio, μg:μg) was prepared in a final volume of 100 μl in HBS (10 mM Hepes pH 7.4, 150 mM NaCl; Sigma) and incubated at RT for 30–45 min before addition of 0.9 ml of “RAC” solution (0.1% human albumin (BPL, UK), 120 μM chloroquine (Sigma) in RPMI medium (Sigma). The transfection solution was then added to cells after washing them once with PBS and incubated with the cells for 4–5 hours before replacement with 2 ml of fresh complete medium. After two days, cells were washed once with PBS and then incubated for 10 min at RT in 200 μl lysis buffer (10 mM sodium phosphate pH 7.8, 8 mM MgCl2, 1 mM EDTA pH 8.0, 1% Triton X-100 and 15% glycerol). After centrifugation, an aliquot of the supernatant was assayed for luciferase activity with luciferase assay buffer (0.1 mM luciferin, 0.44 mM ATP in lysis buffer) using a luminometer (Lumat LB 9501, Berthold, Germany). Activity was normalised using the protein content of each sample (BCA, Pierce).

293 and PerC6 cells = test: LacZ expression in adenovirus helper cell lines; format: cell-based, human
Method: (§2) Expression of β-galactosidase was measured for quantitative graphical presentation by means of the Galacto-Light system (Tropix Inc, Applied Biosystems, Foster City, Calif., U.S.A.)

[1] = system: freshly excised colorectal cancer tissue and attached liver tissue; test: Ex vivo transduction of freshly excised colorectal tumour samples, X-gal staining; design: species or system human
Method: Freshly excised tumour tissue was extensively washed (at least 10 minutes duration) under aseptic conditions with 20 ml of Earl's MEM containing 10% FCS, 150 μg/ml penicillin, 250 μg/ml streptomycin, 10 μg/ml tetracycline, 100 μg/ml amikacin, 150 µg/ml chloramphenicol and 100 μg/ml gentamycin and stored at 4° C. overnight in medium containing 10% FCS. After removal of fat and grossly and suspected necrotic tissue, 2–3 mm^3 samples were prepared and placed individually into wells of a 96-well plate. Samples (in quadruplicate) were incubated in 150 μl of serum-free medium containing, 1.0×10^10 virus particles or in medium alone for 4 h in a CO2 incubator. The medium was then replaced with EMEM containing 10% FCS and the samples incubated for a further 44 h to allow gene expression to proceed. β-galactosidase expression was visualised after fixation of the tumour samples in 2% paraformaldehyde/PBS for 2 h at 4° C. and washing with PBS by overnight incubation in X-gal staining solution at 37° C.

HepG2 cells = test: Transient transfection luciferase reporter assay in HepG2; format: cell-based, human
Method: as §1

HeLa cells = test: Transient transfection luciferase reporter assay in HeLa; format: cell-based, human
Method: as §1

[2] = system: primary human hepatocytes, dermal fibroblasts and endothelial cells; test: Beta-galactosidase expression in infected cultured primary human cells; format: cell-based; settings: 48 h after infection
Method: Primary human dermal fibroblasts were isolated from punch biopsy samples from healthy volunteers and maintained as above. HUVEC cells were obtained from Promocell (Heidelberg, Germany) and maintained in Endothelial Growth Medium plus Supplement Mix (Promocell). Primary hepatocytes were maintained in Williams medium with added antibiotics, glutamine, insulin and hydrocortisone.
After washing cells with PBS, cells were fixed in 0.05% glutaraldehyde in PBS for 10 min at RT. Following further washing in PBS, cells were incubated cells the following solution and incubated at 37° C. X-gal solution: 400 μl 500 mM K4Fe(CN)6, 400 μl 500 mM K3Fe(CN)6, 100 μl 2 mM MgCl2, 250 μl 40 mg/ml X-Gal in DMF and 8.85 ml PBS.
as §2

B1: TcfC-E1BTATA: Luciferase reporter with TcfC arrangement of 5 Tcf sites and E1BTATA box (nucleic acid)
antisense: TACCAACAGTACCGGAATGCCAAGCTAGCTTTTTAGCTTCCTTAGCTCCTGAAAATCTCGCCAAGCTGATGAATTCGAGCTGGCGCATTATATACCCTCTGATAAAGGTGCATTTAGAGATCAAAGGTATGATCAAAGGACTTGATCAAAGGTGAGATCAAAGGTATTGATCAAAGGACTAGAGCTTACTTAGATCGCAGATCTCGAGCCCGGGCTAGCACGCGTAAGAGCTCGGTACCTATCG
level of reporter gene expression among Tcf-E1BTATA arrangements (SW480 cells; SW480, E1BTATA combinations): highest level of reporter gene expression

B2: 5merTcf-SV40: Artificial promoter of 5 active Tcf sites upstream of the basal SV40 promoter; renamed CTP1 (nucleic acid)
antisense: TTGAGATGCAGATCGCAGATCTGATAAAGGTGCATTTAGAGATCAAAGGTAGGACTCTTGATCAAAGGACTGAATTCCTTGATCAAAGGTGCATTTAGAGATCAAAGGTAGGACTCTTTGATCAAAGGGACTAGTAAGCTTGCTAGCACGCGTAAGAGCTCGGTACC
LacZ expression compared to CMV promoter (293 and PerC6 cells; 293 and PerC6, MOI 100, 30 h post-infection): significantly lower than that driven by the CMV promoter | fold more active in PerC6 than in 293 cells (293 and PerC6 cells; PerC6 vs 293): approximately 3 fold | activity relative to CMV enhancer/promoter (SW480 cells; SW480): about 80% | luciferase reporter activity in SW480 (SW480 cells; SW480, Example 6): highly active in SW480, here comparable to CMV | induction ratio (SW480 cells; SW480, relative to SV40 promoter set as 1): 44.2 | inducibility in SW480 compared to HeLa (SW480 cells; SW480 vs HeLa): 30–60 fold | colorectal metastases permissive for high-level expression ([1]; 5 metastases examined): all 5 colorectal metastases examined were permissive | primaries weakly or non-permissive for promoter activity ([1]; of 10 primaries): 3 | activity relative to CMV enhancer/promoter (HepG2 cells): even more active than CMV | induction ratio (HepG2 cells; relative to SV40 promoter set as 1): 18 | luciferase reporter activity in HeLa (HeLa cells; Example 6): shows a background activity in HeLa cells | luciferase activity compared to SV40 promoter alone (HeLa cells; beta-catenin not deregulated): not more active than the SV40 promoter alone | beta-galactosidase expression [2]: very low levels of beta-galactosidase expression
